# Reference: article PMC48140 (BMC Cell Biology, 2001)
# Target: the molecule itself
# Assay: SDS-PAGE with immunoblot
protein,measurement,value
"MP20, lens fiber cell membrane protein (natural protein, ovine, UniProt A0ACI6P5E9 1-173, looked up) MYSFMGGGLFCAWVGTILLVVATATDHWMQYRLSGAFAHQGLWRYCLGTKCYLQTESIAYWNATRAFMILSSLCATSGIIMGIVAFAQQPTFTRLSRPFSAGIMFFASTFFVLLALAIYTGVTVSFLGRRFGDWRFSWSYILGWVALLMTFFAGIFYMCAYRMHECRRLSTPR",stoichiometry N,2
